These results are taken from the Immune Epitope Database (IEDB).

Broadly, the Kd is a measure of binding affinity in units of concentration.

In assay [1] the target is HLA-A*26:01. Description: IEDB peptide-MHC binding, purified MHC/competitive/radioactivity; filed as Kd, often an IC50 or EC50 that approximates it; ≥ and ≤ were set here for values at or beyond the usual limits of such assays.
Another assay concerns the target HLA-B*53:01. The assay is described as above. Particulars: source organism: Dengue virus 4 Philippines/H241/1956.
Assay [2] concerns the target HLA-B*58:01. The description is as above.
In a further assay the target is HLA-B*57:01. The description is as above.
Another assay deals with HLA-A*32:01. The description is as above. Conditions: source organism: Dengue virus 2 Jamaica/1409/1983.
For assay [3], the target named is HLA-A*02:01. Described as above.
Another assay has as its target HLA-A*02:03. The assay is described as above. Particulars: source organism: Dengue virus 2 Jamaica/1409/1983.
The target of a further assay is HLA-A*02:06. Described as above. Conditions: source organism: Dengue virus 2 Jamaica/1409/1983.
The target of the next assay is HLA-A*02:17. The assay is described as above.
The target in assay [4] is HLA-B*08:01. The description is as above. Particulars: source organism: Dengue virus 2 Jamaica/1409/1983.
The target of assay [5] is HLA-B*15:01. Described as above. Conditions: source organism: Dengue virus 2 Jamaica/1409/1983.
Another assay deals with HLA-A*24:03. Description: IEDB peptide-MHC binding, purified MHC/direct/fluorescence; filed as Kd, often an IC50 or EC50 that approximates it; ≥ and ≤ were set here for values at or beyond the usual limits of such assays.
The next assay has as its target HLA-A*68:02. Description: IEDB peptide-MHC binding, purified MHC/competitive/radioactivity; filed as Kd, often an IC50 or EC50 that approximates it; ≥ and ≤ were set here for values at or beyond the usual limits of such assays. Particulars: source organism: Dengue virus 2 Jamaica/1409/1983.
Assay [6] deals with HLA-A*01:01. Description: IEDB peptide-MHC binding, purified MHC/direct/fluorescence; filed as Kd, often an IC50 or EC50 that approximates it; ≥ and ≤ were set here for values at or beyond the usual limits of such assays.
For assay [7], the target named is HLA-A*02:01. The description is as above.
For another assay, the target named is HLA-A*03:01. The description is as above.
For another assay, the target named is HLA-A*11:01. The assay is described as above.
Assay [8] addresses HLA-A*26:01. The assay is described as above.
A further assay concerns the target HLA-A*31:01. Described as above.
The target of assay [9] is HLA-A*69:01. The description is as above.
The next assay has as its target HLA-B*07:02. The assay is described as above.
Assay [10] concerns the target HLA-B*08:01. The assay is described as above.
Assay [11] addresses HLA-B*15:01. Described as above.
A further assay concerns the target HLA-B*27:05. Described as above.
Another assay concerns the target HLA-B*40:01. The description is as above.
In the next assay the target is HLA-B*44:02. The assay is described as above.
Assay [12] deals with HLA-B*58:01. The assay is described as above.
For the next assay, the target named is HLA-A*24:02. Description: IEDB peptide-MHC binding, purified MHC/competitive/radioactivity; filed as Kd, often an IC50 or EC50 that approximates it; ≥ and ≤ were set here for values at or beyond the usual limits of such assays.
The target in assay [13] is HLA-A*01:01. The assay is described as above. Conditions: source organism: Dengue virus 1 Brazil/97-11/1997.
For a further assay, the target named is HLA-A*23:01. The description is as above. Conditions: source organism: Dengue virus 1 Brazil/97-11/1997.
Assay [14] has as its target HLA-A*02:01. Description: IEDB peptide-MHC binding, purified MHC/competitive/fluorescence; filed as Kd, often an IC50 or EC50 that approximates it; ≥ and ≤ were set here for values at or beyond the usual limits of such assays. Conditions: source organism: Homo sapiens.
Assay [15] has as its target HLA-A*26:01. Described as above. Particulars: source organism: Homo sapiens.
The target of assay [16] is HLA-A*69:01. The description is as above. Conditions: source organism: Homo sapiens.
The target of a further assay is HLA-B*27:03. The description is as above. Particulars: source organism: Homo sapiens.
The target in another assay is HLA-B*39:01. The description is as above. Particulars: source organism: Homo sapiens.
The next assay addresses HLA-B*46:01. The assay is described as above. Conditions: source organism: Homo sapiens.
The next assay addresses HLA-B*51:01. The assay is described as above. Particulars: source organism: Homo sapiens.
Setting [17] is: source organism: Dengue virus 4 Philippines/H241/1956.
[18] abbreviates: source organism: Dengue virus 3 Martinique/1243/1999.
Setting [19] is: source organism: Dengue virus 2 Jamaica/1409/1983.
The mark [20] stands for this setting: source organism: Dengue virus 3 Sri Lanka/1266/2000.
The mark [21] stands for this setting: source organism: Dengue virus 1 Brazil/97-11/1997.
Setting [22] is: source organism: Salmonella enterica subsp. enterica serovar Typhimurium.
Setting [23] is: source organism: Salmonella enterica subsp. enterica serovar Typhi.
Setting [24] is: source organism: Dengue virus 1 Singapore/S275/1990.

For the sequence FVIDNVHTW, the dissociation constant Kd in the assay with HLA-A*26:01 [1] (setting [17]) was 54.8 nM; with HLA-B*53:01, 1.22 nM; with HLA-B*58:01 [2] (setting [17]), 17.7 nM.
Turning to GAVFTEENQW, the Kd in the assay with HLA-B*58:01 [2] (setting [18]) is 22.6 nM.
IGLTSRATW: the Kd with HLA-B*57:01 (setting [19]) was determined as 6.87 nM; in the assay with HLA-B*58:01 [2] (setting [19]) it was 6.11 nM.
Turning to ILIGVIITW, the equilibrium dissociation constant (Kd) is at least 23500 nM with HLA-A*32:01, 352 nM in the assay with HLA-B*57:01 (setting [19]) and 1530 nM with HLA-B*58:01 [2] (setting [19]).
KAAVEDEEF: the Kd was 1670 nM with HLA-B*57:01 (setting [20]) and 61.9 nM with HLA-B*58:01 [2] (setting [20]).
For the sequence KGKRIEPSW, the Kd with HLA-B*57:01 (setting [19]) came to 13.1 nM; with HLA-B*58:01 [2] (setting [19]), 11.2 nM.
Regarding LMMRTTWAL, the equilibrium dissociation constant (Kd) is 1.35 nM with HLA-A*02:01 [3] (setting [19]); 0.47 nM in the assay with HLA-A*02:03; 8.05 nM with HLA-A*02:06; 35.9 nM with HLA-A*02:17 (setting [19]); 1.32 nM with HLA-B*08:01 [4]; 0.12 nM in the assay with HLA-B*15:01 [5].
For LSSKPEFCIK, the Kd with HLA-B*58:01 [2] (setting [17]) is 10600 nM.
As to LSSLLKNDVP, the Kd with HLA-B*57:01 (setting [21]) was determined as 7260 nM; with HLA-B*58:01 [2] (setting [21]) it was 819 nM.
LTSKELMMAT: the equilibrium dissociation constant (Kd) with HLA-B*57:01 (setting [19]) was at least 29800 nM; with HLA-B*58:01 [2] (setting [19]), 1130 nM.
In the case of LYILGLFKF, the equilibrium dissociation constant (Kd) in the assay with HLA-A*24:03 (source organism: Orthohantavirus hantanense) came out at 115 nM.
As to NASGNIVSSV, the Kd is 48 nM in the assay with HLA-A*68:02, 464 nM with HLA-B*57:01 (setting [19]) and 112 nM in the assay with HLA-B*58:01 [2] (setting [19]).
Consider NSDYMMWVG, for which the Kd in the assay with HLA-A*01:01 [6] (setting [22]), with HLA-A*02:01 [7] (setting [22]), with HLA-A*03:01 (setting [22]), with HLA-A*11:01 (setting [22]), with HLA-A*24:03 (setting [22]) and with HLA-A*26:01 [8] (setting [22]) was at least 20000 nM throughout. The Kd in the assay with HLA-A*31:01 (setting [22]), with HLA-A*69:01 [9] (setting [22]), with HLA-B*07:02 (setting [22]), in the assay with HLA-B*08:01 [10] (setting [22]), with HLA-B*15:01 [11] (setting [22]) and in the assay with HLA-B*27:05 (setting [22]) was at least 20000 nM throughout. The Kd with HLA-B*40:01 (setting [22]), in the assay with HLA-B*44:02 (setting [22]) and with HLA-B*58:01 [12] (setting [22]) was at least 20000 nM in each case.
For PSEDEQQGH, the dissociation constant (Kd) with HLA-A*01:01 [6] (setting [23]), in the assay with HLA-A*02:01 [7] (setting [23]), with HLA-A*03:01 (setting [23]), in the assay with HLA-A*11:01 (setting [23]), with HLA-A*24:03 (setting [23]) and with HLA-A*26:01 [8] (setting [23]) was at least 20000 nM each time. Further, the dissociation constant (Kd) with HLA-A*31:01 (setting [23]), with HLA-A*69:01 [9] (setting [23]), with HLA-B*07:02 (setting [23]), with HLA-B*08:01 [10] (setting [23]), with HLA-B*15:01 [11] (setting [23]) and with HLA-B*27:05 (setting [23]) was at least 20000 nM each time. In addition, the dissociation constant (Kd) in the assay with HLA-B*40:01 (setting [23]), in the assay with HLA-B*44:02 (setting [23]) and with HLA-B*58:01 [12] (setting [23]) was at least 20000 nM throughout.
Consider RVLNLVENW, for which the Kd amounted to 21.3 nM with HLA-A*32:01, 2.43 nM in the assay with HLA-B*57:01 (setting [19]) and 1.34 nM in the assay with HLA-B*58:01 [2] (setting [19]).
In the case of SASRAWNVWE, the dissociation constant Kd with HLA-B*57:01 (setting [18]) was 279 nM; with HLA-B*58:01 [2] (setting [18]), 53.9 nM.
Regarding VASAGISYKD, the Kd with HLA-B*57:01 (setting [17]) was 4690 nM; with HLA-B*58:01 [2] (setting [17]), 3920 nM.
For VLSIVSLFPL, the Kd turned out to be 8.47 nM with HLA-A*02:01 [3] (setting [24]), 8 nM in the assay with HLA-A*02:17 (setting [24]) and 108 nM in the assay with HLA-B*57:01 (setting [21]).
On to VMASSVLLW, for which the Kd in the assay with HLA-A*24:02 (setting [24]) worked out at 113 nM; with HLA-B*57:01 (setting [24]), 6.56 nM; in the assay with HLA-B*58:01 [2] (setting [24]), 1.28 nM.
Regarding VTAKWLWGF, the dissociation constant (Kd) with HLA-A*01:01 [13] is 13900 nM; with HLA-A*23:01, 417 nM; with HLA-A*24:02 (setting [21]) it was 241 nM; in the assay with HLA-A*26:01 [1] (setting [21]), 12800 nM; with HLA-B*58:01 [2] (setting [21]), 59 nM.
As for WSTIWRQLY, the Kd is 10 nM with HLA-A*01:01 [6] (source organism: Mus musculus); at least 20000 nM with HLA-A*02:01 [14]; at least 20000 nM with HLA-A*26:01 [15]; at least 20000 nM with HLA-A*69:01 [16]; at least 20000 nM with HLA-B*27:03; at least 20000 nM with HLA-B*39:01. The dissociation constant (Kd) in the assay with HLA-B*46:01 and with HLA-B*51:01 was at least 20000 nM in each case.
